Measured values: patent US20170073408A1 (Amgen, published 2017)
Changes are numbered by the printed parent chain.

T1: GDF-8 (UniProt O14793 267-375)
T1 construct: Bought
T1 sequence (looked up): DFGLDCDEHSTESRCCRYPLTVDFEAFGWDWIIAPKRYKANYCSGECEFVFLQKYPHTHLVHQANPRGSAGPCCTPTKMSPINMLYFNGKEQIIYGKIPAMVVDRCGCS

T2: BMP4 (UniProt P12644 293-408)
T2 construct: Bought
T2 sequence (looked up): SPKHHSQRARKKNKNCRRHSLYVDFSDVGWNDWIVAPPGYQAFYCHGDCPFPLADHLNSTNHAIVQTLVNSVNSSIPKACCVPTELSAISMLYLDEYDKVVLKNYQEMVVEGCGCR

T3: TGF-β-3 (UniProt P10600 301-412)
T3 construct: Bought
T3 sequence (looked up): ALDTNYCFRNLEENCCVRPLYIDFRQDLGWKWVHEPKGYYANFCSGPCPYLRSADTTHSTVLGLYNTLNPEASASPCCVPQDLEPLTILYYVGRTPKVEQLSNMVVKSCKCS

T4: GDF-11 (UniProt O95390 299-407)
T4 construct: Bought
T4 sequence (looked up): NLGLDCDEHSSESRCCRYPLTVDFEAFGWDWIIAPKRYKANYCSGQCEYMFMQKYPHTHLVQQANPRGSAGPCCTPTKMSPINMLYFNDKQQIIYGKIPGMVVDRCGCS

T5: A/B13-39
T5 construct: also called Activin A 13/39 B
T5 activin A/B chimeric subunit: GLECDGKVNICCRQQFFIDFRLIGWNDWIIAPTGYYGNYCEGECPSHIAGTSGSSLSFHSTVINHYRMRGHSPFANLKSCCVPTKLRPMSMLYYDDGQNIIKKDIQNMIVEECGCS

T6: activin B (UniProt P09529 293-407)
T6 construct: Bought (R & D Systems)
T6 sequence (looked up): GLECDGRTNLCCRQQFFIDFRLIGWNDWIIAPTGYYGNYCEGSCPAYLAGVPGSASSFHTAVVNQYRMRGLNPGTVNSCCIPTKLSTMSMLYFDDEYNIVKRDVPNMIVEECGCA

T7: A/B82-107
T7 activin A/B chimeric subunit: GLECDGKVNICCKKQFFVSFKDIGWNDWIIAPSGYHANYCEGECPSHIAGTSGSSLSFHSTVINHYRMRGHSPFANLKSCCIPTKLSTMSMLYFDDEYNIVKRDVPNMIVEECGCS

B1: anti-activin A monoclonal antibody A1 (antibody, human IgG2, lambda, V domains shown)
VH: QVQLVQSGAEVKKPGASVKVSCKASGYTFTSYGLSWVRQAPGQGLEWMGWIIPYNGNTNSAQKLQGRVTMTTDTSTSTAYMELRSLRSDDTAVYFCARDRDYGVNYDAFDIWGQGTMVTVSS
VL: not shown
notes: Fully human antibody from XenoMouse hybridoma (strains giving IgG2 kappa or IgG4 kappa); also called L1H1; Mab A1
B2: anti-activin A monoclonal antibody A2 (antibody, human IgG2, kappa, V domains shown)
VH: QVQLVESGGGVVQPGRSLRLSCAASGFTFSSYGMHWVRQAPGKGLEWVAVIWYDGSNKYHADSVKGRFTISRDNSKNTLYLQVNSLRAEDTAVYYCVRSRNWNYDNYYYGLDVWGQGTTVTVSS
VL: DIQMTQSPSSLSASVGDRVTITCRASQGIRNNLGWYQQKPGKAPKRLIYAASSLQSGVPSRFSGSGSGTEFTLTISSLQPEDFTTYYCLQHNSYPWTFGQGTKVEIKR
notes: Fully human antibody from XenoMouse hybridoma; also called L2H2
B3: anti-activin A monoclonal antibody A3 (antibody, human IgG2, kappa, V domains shown)
VH: EVQLVESGGGLVQPGGSLRLSCAASGFTFSSYWMSWVRQAPGKGLECVANIKQDGSEEYYVDSVKGRFTISRDNAKNSLYLQMNSLRAEDTAVYYCARGSSSWYYYNYGMDVWGQGTTVTVSS
VL: B2 VL with N32D, T84A, L89R, H91Q, S93T, W96L, Q100G
notes: Fully human antibody from XenoMouse hybridoma; also called L3H3
B4: recombinant human activin A (mature) (ligand)
chain: T5 activin A/B chimeric subunit with R13K, Q14K, I18V, D19S, R21K, L22D, T33S, Y36H, G37A
notes: also called r-HuActivin A; rhActivin A

Experiments:
GDF-8 = target: T1, GDF-8; assay: BIAcore, antibody pre-incubated with ligand, ActRIIB/Fc on chip
Procedure: (§1) These assays were performed using BlAcore® technology, to determine the selectivity of binding of antibodies A1, A2 and A3 to various activins and other TGF-β family members, including activin A, activin B, activin AB, inhibin A, GDF-8, GDF-11, TGF-β-1, TGF-β-3, and BMP4 (all from R & D Systems). […] Because BlAcore assays detect changes in the refractive index, the difference between the response detected with injection over the immobilized receptor surfaces compared with the response detected with injection over the control surface in the absence of any antibody represents the actual binding of the various ligands to the receptor. With pre-incubation of antibodies and activin and TGF-β molecules, a change (increase or decrease) in binding response indicates antibody binding to the TGFβ family of molecules. The antibodies all bound to activin A but not to activin B, GDF-8, GDF-11, TGF-β-1, TGF-β-3, and BMP4, thus indicating specificity for activin A.

BMP4 = target: T2, BMP4; assay: as above
Procedure: as §1

TGF-β-3 = target: T3, TGF-β-3; assay: as above
Procedure: as §1

TGF-β-1 = target: T8, TGF-β-1 (UniProt P01137 279-390); assay: as above
T8 construct: Bought
Procedure: as §1

GDF-11 = target: T4, GDF-11; assay: as above
Procedure: as §1

[1] = target: B4; assay: cell-based or functional assay
[2] = target: B4; assay: BIAcore blocking assay, 1 nM activin A; competitor rhActivin RIIB/Fc chimera on chip
Procedure: (§2) Blocking assays were conducted on immobilized recombinant human activin RIB-Fc chimera surfaces, recombinant human activin RIIB-Fc chimera surfaces, and recombinant human RIIA-Fc chimera recombinant surfaces, as described in Example 5. Monoclonal antibodies A1, A2, AKA1, and AKA2 on each chimera surface were incubated with 1 nM activin A, and the relative binding response (%) was measured.

[3] = target: B4; assay: Biacore blocking: 1 nM Activin A + antibody over rhActRIB-Fc chimera surface. No unit in the drawn table; M by Table 7, which prints this value rounded as 0.29 nM
[4] = target: B4; assay: BIAcore blocking assay, 1 nM activin A; competitor rhActivin RIB/Fc chimera on chip
Procedure: as §2

A/B13-39 = target: T5, A/B13-39; assay: Biacore blocking: 100 nM antibody + diluted conditioned medium (CM) of the ligand over ActRIB-Fc surface
[5] = target: B4; assay: affinity analysis of Example 15 (method of the KD not given)
activin B = target: T6, activin B; assay: affinity analysis of Example 15 (antibody immobilized on a surface)
[6] = target: B4; assay: BIAcore blocking assay, 1 nM activin A; competitor rhActivin RIIA/Fc chimera on chip
Procedure: as §2

[7] = target: B4; assay: KinExA solution equilibrium, activin A-coated beads
Procedure: (§3) Solution-based equilibrium-binding assays using KinExA™ technology (Sapidyne Instruments, Inc.) were used to determine the dissociation equilibrium (KD) of activin A binding to antibody molecules. This solution-based assay is considered to be more sensitive than the BIAcore assay in some instances. Reacti-Gel™ 6× was pre-coated with about 50 μg/ml activin A overnight, and then blocked with BSA. 30 pM and 100 pM of antibody samples were incubated with various concentrations (0.5 pM to 5 nM) of activin A in sample buffer at room temperature for 8 hours before being run through the activin A-coated beads. The amount of the bead-bound antibody was quantified by fluorescent (Cy5) labeled goat anti-human-Fc antibody at 1 mg/ml in superblock. The binding signal was proportional to the concentration of free antibody at equilibrium with a given activin A concentration. KD was obtained from the nonlinear regression of the competition curves using a dual-curve one-site homogeneous binding model provided in the KinEx ATM software (Sapidyne Instruments, Inc.). […] A2 and A3 bound to activin A at ˜15 pM and ˜8 pM, respectively.

[8] = target: B4; assay: Biacore blocking: 1 nM Activin A + antibody over rhActRIB-Fc chimera surface. No unit in the drawn table; M by Table 7, which prints this value rounded as 0.18 nM
[9] = target: B4; assay: Biacore: 1 nM Activin A + sample over rhActivin RIIB/Fc Chimera surface; rising ('carry on') curve
Procedure: as §2

A/B82-107 = target: T7, A/B82-107; assay: Biacore blocking: 100 nM antibody + diluted conditioned medium (CM) of the ligand over ActRIB-Fc surface
A31-2 [10] = target: T9, A31-2; assay: KinExA solution equilibrium, antibody A31 fixed at 30 pM
T9 construct: bars A52-1, A31-2, A30-2) make A3 likely; not assigned here
Procedure: as §3

A31-2 [11] = target: T9, A31-2; assay: KinExA solution equilibrium, antibody A31 fixed at 100 pM
Procedure: as §3

[12] = target: B2; assay: KinExA solution equilibrium, antibody A2 (A30) fixed at 100 pM
Procedure: as §3

[13] = target: B2; assay: KinExA solution equilibrium, antibody A2 (A30) fixed at 30 pM
Procedure: as §3

[14] = target: B1; assay: KinExA solution equilibrium, antibody A1 (A52) fixed at 100 pM
Procedure: as §3

[15] = target: B1; assay: KinExA solution equilibrium, antibody A1 (A52) fixed at 30 pM
Procedure: as §3

T8 sequence (P01137 279-390 limits assumed): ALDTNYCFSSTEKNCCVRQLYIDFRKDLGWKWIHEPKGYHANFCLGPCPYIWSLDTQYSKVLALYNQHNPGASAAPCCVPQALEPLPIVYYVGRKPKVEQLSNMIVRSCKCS

binding result (GDF-8)	binding result (BMP4)	binding result (TGF-β-3)	binding result (TGF-β-1)	binding result (GDF-11)	Cell IC50 (nM); luciferase activity of C2C12/pMARE reporter cells, activin A fixed at 4 nM [1] [nM]	EC50 [4] [nM]	binding result (A/B13-39)	Kd [5] [nM]	binding result (activin B)	Kd [7] [nM]	Binder	further results
no binding	no binding	no binding	no binding	no binding	< 3	0.29	no binding (tested: 100 nM)	~0.003	no binding	–	B1	EC50 [2]: 0.29 nM; EC50 [3]: 0.29 nM; EC50 [6]: 0.29 nM
no binding	no binding	no binding	no binding	no binding	< 3	0.18	binds	~0.025	no binding	~0.015	B2	EC50 [8]: 0.177 nM; EC50 (read off the curve) [9]: ~1 nM
no binding	no binding	no binding	no binding	no binding	< 3	–	binds	~0.011	no binding	~0.008	B3	binding result (A/B82-107): no binding (tested: 100 nM)
–	–	–	–	–	–	–	–	–	–	–	B4	IC50 (read off the curve) (A31-2 [10]): ~0.03 nM; IC50 (read off the curve) (A31-2 [11]): ~0.08 nM; IC50 (read off the curve) [12]: ~0.1 nM; IC50 (read off the curve) [13]: ~0.04 nM; IC50 (read off the curve) [14]: ~0.07 nM; IC50 (read off the curve) [15]: ~0.02 nM
